{
  "source": "paper PMC7643339",
  "key": {"[1]": {"biological_target": "mouse TLR9 ectodomain, uncleaved (without proteolytic activation) (mouse) (UniProt Q9EQU3)", "assay": "SEC; Superdex 200 10/300, 10 mM Tris pH 7.4, 0.15 M NaCl, no oligonucleotide; last step of the purification"}, "mTLR9-ECD, GluC-cleaved [2]": {"biological_target": "T1, mTLR9-ECD, GluC-cleaved (mouse, UniProt Q9EQU3 26-818)", "T1 sequence": "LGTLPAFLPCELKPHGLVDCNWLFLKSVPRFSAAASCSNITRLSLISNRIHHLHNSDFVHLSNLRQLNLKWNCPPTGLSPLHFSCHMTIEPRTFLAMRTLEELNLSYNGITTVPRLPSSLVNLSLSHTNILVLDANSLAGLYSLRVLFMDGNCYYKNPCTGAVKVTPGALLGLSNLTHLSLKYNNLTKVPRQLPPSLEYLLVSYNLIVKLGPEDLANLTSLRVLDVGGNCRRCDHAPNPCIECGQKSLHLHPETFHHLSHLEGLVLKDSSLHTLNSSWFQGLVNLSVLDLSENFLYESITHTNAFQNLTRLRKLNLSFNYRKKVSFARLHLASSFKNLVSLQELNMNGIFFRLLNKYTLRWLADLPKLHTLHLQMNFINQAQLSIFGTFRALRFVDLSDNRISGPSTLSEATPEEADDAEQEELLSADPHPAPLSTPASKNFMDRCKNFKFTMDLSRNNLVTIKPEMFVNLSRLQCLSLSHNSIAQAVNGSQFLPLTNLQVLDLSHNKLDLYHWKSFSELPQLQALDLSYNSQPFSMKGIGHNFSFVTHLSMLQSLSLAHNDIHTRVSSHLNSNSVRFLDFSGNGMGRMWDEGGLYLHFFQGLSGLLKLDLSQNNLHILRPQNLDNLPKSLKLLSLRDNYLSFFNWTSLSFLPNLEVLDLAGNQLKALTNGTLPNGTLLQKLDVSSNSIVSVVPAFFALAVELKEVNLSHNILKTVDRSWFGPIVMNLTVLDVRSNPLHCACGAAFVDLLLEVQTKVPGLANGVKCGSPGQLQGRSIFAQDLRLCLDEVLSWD", "assay": "fluorescence anisotropy; 1:1 fit; Anisotropy: 2 or 5 nM Alexa 488 oligo, protein to 100 nM; competition in 10 mM MES pH 6.0, 0.15 M NaCl, room temperature (direct titration buffer not separately)"}, "mTLR9-ECD, GluC-cleaved [3]": {"biological_target": "T1, mTLR9-ECD, GluC-cleaved", "assay": "fluorescence anisotropy; apparent, 1:1 fit; SI text gives 9.2 nM; Anisotropy: 2 or 5 nM Alexa 488 oligo, protein to 100 nM; competition in 10 mM MES pH 6.0, 0.15 M NaCl, room temperature (direct titration buffer not separately)"}, "[4]": {"biological_target": "T2, mTLR9-ECD W96A/Y132A (site A mutant) (mouse, UniProt Q9EQU3 26-818, W96A;Y132A)", "T2 sequence": "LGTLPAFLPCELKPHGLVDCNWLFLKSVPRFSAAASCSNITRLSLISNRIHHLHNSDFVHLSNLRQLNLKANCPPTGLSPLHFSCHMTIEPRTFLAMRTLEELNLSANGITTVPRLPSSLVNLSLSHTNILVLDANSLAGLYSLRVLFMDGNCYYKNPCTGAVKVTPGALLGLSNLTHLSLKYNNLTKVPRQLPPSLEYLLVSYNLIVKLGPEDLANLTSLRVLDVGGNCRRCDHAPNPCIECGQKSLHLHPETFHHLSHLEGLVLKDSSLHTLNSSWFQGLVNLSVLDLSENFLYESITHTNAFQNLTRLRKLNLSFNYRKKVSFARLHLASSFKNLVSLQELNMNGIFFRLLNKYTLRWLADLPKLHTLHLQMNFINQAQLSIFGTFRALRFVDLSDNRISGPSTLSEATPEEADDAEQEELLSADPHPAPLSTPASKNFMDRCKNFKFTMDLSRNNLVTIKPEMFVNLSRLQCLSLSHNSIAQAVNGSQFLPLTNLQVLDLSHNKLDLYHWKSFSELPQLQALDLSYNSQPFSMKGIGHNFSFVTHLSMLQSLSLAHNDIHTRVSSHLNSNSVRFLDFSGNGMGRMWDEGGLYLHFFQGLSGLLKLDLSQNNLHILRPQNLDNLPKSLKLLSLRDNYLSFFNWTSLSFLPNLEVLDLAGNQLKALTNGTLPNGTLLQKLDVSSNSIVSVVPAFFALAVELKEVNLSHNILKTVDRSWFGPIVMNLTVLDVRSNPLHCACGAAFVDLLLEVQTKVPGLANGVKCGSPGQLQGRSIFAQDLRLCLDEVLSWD", "assay": "mass photometry; a fraction dimerizes with ligand; Anisotropy: 2 or 5 nM Alexa 488 oligo, protein to 100 nM; competition in 10 mM MES pH 6.0, 0.15 M NaCl, room temperature (direct titration buffer not separately)"}, "mTLR9-ECD, GluC-cleaved [5]": {"biological_target": "T1, mTLR9-ECD, GluC-cleaved", "assay": "fluorescence anisotropy; apparent, 1:1 fit; Anisotropy: 2 or 5 nM Alexa 488 oligo, protein to 100 nM; competition in 10 mM MES pH 6.0, 0.15 M NaCl, room temperature (direct titration buffer not separately)"}, "[6]": {"biological_target": "T3, mTLR9-ECD E617A/H642A (site B mutant) (mouse, UniProt Q9EQU3 26-818, E617A;H642A)", "T3 sequence": "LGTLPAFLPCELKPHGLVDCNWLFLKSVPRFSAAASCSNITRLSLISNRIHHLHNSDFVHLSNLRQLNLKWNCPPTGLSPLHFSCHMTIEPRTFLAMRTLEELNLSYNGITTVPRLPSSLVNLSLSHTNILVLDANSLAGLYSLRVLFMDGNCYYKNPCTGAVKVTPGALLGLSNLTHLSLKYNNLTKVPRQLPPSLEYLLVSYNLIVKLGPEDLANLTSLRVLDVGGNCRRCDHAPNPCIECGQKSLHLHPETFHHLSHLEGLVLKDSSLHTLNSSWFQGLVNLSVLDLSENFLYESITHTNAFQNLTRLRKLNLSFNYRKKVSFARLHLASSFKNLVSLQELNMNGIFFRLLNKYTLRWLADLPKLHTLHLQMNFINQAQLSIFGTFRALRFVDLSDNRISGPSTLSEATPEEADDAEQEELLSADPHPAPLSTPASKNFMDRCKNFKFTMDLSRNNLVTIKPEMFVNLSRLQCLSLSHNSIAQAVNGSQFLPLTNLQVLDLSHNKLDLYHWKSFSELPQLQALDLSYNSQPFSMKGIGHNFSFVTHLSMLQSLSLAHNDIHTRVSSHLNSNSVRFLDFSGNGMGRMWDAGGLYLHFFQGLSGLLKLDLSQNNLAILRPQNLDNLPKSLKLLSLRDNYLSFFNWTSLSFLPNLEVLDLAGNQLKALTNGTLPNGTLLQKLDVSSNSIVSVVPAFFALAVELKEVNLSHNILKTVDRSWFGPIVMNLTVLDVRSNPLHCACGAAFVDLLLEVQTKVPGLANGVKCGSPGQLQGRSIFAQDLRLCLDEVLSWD", "assay": "fluorescence anisotropy; 1:1 fit; reports site A (KA); Anisotropy: 2 or 5 nM Alexa 488 oligo, protein to 100 nM; competition in 10 mM MES pH 6.0, 0.15 M NaCl, room temperature (direct titration buffer not separately)"}, "mTLR9-ECD, uncleaved": {"biological_target": "T4, mTLR9-ECD, uncleaved (mouse, UniProt Q9EQU3 26-818)", "T4 sequence": "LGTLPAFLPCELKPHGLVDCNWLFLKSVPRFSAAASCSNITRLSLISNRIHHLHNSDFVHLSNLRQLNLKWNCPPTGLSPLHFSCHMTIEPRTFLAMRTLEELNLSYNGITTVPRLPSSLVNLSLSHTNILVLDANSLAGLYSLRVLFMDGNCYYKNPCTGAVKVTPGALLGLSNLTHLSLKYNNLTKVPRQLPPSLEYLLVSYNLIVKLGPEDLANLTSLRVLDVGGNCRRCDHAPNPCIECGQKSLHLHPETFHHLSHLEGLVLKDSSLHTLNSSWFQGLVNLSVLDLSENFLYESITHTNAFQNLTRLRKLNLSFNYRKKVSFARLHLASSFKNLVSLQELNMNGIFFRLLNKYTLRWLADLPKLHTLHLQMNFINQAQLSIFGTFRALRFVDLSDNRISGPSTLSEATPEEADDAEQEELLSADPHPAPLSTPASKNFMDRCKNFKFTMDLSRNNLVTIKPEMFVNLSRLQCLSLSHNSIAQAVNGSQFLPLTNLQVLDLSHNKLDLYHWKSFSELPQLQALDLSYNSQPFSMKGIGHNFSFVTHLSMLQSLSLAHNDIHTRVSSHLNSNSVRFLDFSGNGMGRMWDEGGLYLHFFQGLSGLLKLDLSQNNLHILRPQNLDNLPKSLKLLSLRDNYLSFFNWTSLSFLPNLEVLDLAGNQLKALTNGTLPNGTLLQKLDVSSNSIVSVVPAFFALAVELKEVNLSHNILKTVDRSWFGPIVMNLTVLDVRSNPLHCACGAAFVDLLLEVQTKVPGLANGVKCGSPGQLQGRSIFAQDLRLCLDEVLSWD", "assay": "fluorescence anisotropy; 1:1 fit; uncleaved; Anisotropy: 2 or 5 nM Alexa 488 oligo, protein to 100 nM; competition in 10 mM MES pH 6.0, 0.15 M NaCl, room temperature (direct titration buffer not separately)"}, "mTLR9-ECD, GluC-cleaved [7]": {"biological_target": "T1, mTLR9-ECD, GluC-cleaved", "assay": "competition; Cheng-Prusoff; vs Alexa 488 1668-12mer; Anisotropy: 2 or 5 nM Alexa 488 oligo, protein to 100 nM; competition in 10 mM MES pH 6.0, 0.15 M NaCl, room temperature (direct titration buffer not separately)"}, "mTLR9-ECD, GluC-cleaved [8]": {"biological_target": "T1, mTLR9-ECD, GluC-cleaved", "assay": "competition; vs Alexa 488 1668-12mer; Anisotropy: 2 or 5 nM Alexa 488 oligo, protein to 100 nM; competition in 10 mM MES pH 6.0, 0.15 M NaCl, room temperature (direct titration buffer not separately)"}},
  "data": [
    {"molecule": "mouse TLR9 ectodomain, uncleaved (without proteolytic activation) (from UniProt Q9EQU3 26-818) (domain or fragment)", "values": [
      {"measurement": "stoichiometry N", "setting": "[1]", "result": 2}
    ]},
    {"molecule": "CCTGGATGGGAA (ssDNA)", "note": "[4084 (printed 4048 in Table 1; Alexa 488)]", "values": [
      {"measurement": "Kd", "setting": "mTLR9-ECD, GluC-cleaved [2]", "result": 29, "unit": "nM"}
    ]},
    {"molecule": "CATGACGTTCCT (ssDNA)", "note": "[1668-12mer (Alexa 488)]", "values": [
      {"measurement": "Kd", "setting": "mTLR9-ECD, GluC-cleaved [3]", "result": 11, "unit": "nM"}
    ]},
    {"molecule": "TCCATGACGTTCCTGATGCT (ssDNA)", "note": "[1668, unlabeled]", "values": [
      {"measurement": "binding result", "setting": "[4]", "result": "binds"}
    ]},
    {"molecule": "TCCTTTCGTTTTTTTTTTTTTTT (ssDNA)", "note": "[minM (Alexa 488)]", "values": [
      {"measurement": "Kd", "setting": "mTLR9-ECD, GluC-cleaved [5]", "result": 3.2, "unit": "nM"}
    ]},
    {"molecule": "TCCATGACGTTCCTGATGCT (ssDNA)", "note": "[1668 (Alexa 488)]", "values": [
      {"measurement": "Kd", "setting": "[6]", "result": 40, "unit": "nM"},
      {"measurement": "Kd", "setting": "mTLR9-ECD, uncleaved", "result": 12, "unit": "nM"},
      {"measurement": "Kd", "setting": "mTLR9-ECD, GluC-cleaved [5]", "result": 2.8, "unit": "nM"}
    ]},
    {"molecule": "CATGACGTTCCT (ssDNA)", "note": "[1668-12mer, unlabeled]", "values": [
      {"measurement": "Ki", "setting": "mTLR9-ECD, GluC-cleaved [7]", "result": 8, "unit": "nM"},
      {"measurement": "IC50", "setting": "mTLR9-ECD, GluC-cleaved [8]", "result": "~10", "unit": "nM"}
    ]}
  ]
}
